B1: CHCHD6 (parent)
chain: MYKLSSEQFHEAASKMESTIKPRR
B2: ZNF263 (parent)
chain: EKPYKCPECGEIFAHSSNLLRHQR

Variants of: B1
Test: protein stability index of a GFP-peptide fusion (GPS, HEK-293T) (PSI 1-6); higher = more stable
Details: c terminus: a fixed tail appended
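Also: lentivirally expressed fusions sorted by FACS into six bins by GFP to DsRed ratio, PSI derived from sequencing read proportions per bin multiplied by bin number.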

Row | Variant | protein stability index
1 | R24Q | 3.65
2 | R24C | 3.1
3 | R24A | 3.91
4 | S18N | 3.97
5 | S18T | 4.1
6 | S18K | 3.58
7 | S18E | 3.71
8 | S18Y | 3.42
9 | S18G | 3.7
10 | S18A | 4.41
11 | S18W | 2.98
12 | S18R | 4.13
13 | S18Q | 3.47
14 | S18H | 4.51
15 | S18F | 2.78
16 | S18C | 3.99
17 | S18L | 3.4
18 | S18I | 2.68
19 | S18D | 4.24
20 | S18V | 3.77
21 | S18P | 3.8
22 | S18M | 3.31

Variants of: B2
Test: as above
Details: c terminus: a fixed tail appended

Row | Variant | protein stability index
23 | E1L | 2.53
24 | E1C | 1.85
25 | E1F | 2.13
26 | E1R | 2.9
27 | E1M | 2.37
28 | E1I | 2.33
29 | E1Y | 2.06
30 | E1A | 1.55
31 | I12V | 1.7
32 | I12D | 2.22
33 | I12K | 1.12
34 | I12M | 2.04
35 | I12G | 1.17
36 | C9G | 3.84
37 | C9K | 3.5
38 | C9P | 3.86
39 | C9N | 3.48
40 | C9R | 3.73
41 | C9S | 3.72
42 | H22L | 1.91
43 | H22N | 2.35
44 | H22E | 2.55
45 | F13C | 3.01
46 | F13D | 3.37
47 | F13G | 2.35

Row | Variant | protein stability index
48 | F13Y | 2.19
49 | F13N | 1.51
50 | F13H | 4.03
51 | F13W | 1.5
52 | N18L | 2.67
53 | N18A | 4.13
54 | N18D | 4.05
55 | N18M | 2.82
56 | N18G | 3.05
57 | N18P | 2.55
58 | N18S | 4.02
59 | N18C | 3.75
60 | K5W | 2.46
61 | K5Y | 2.2
62 | K5S | 2.64
63 | K5H | 2.38
64 | K5T | 3.41
65 | K5N | 2.5
66 | S17F | 2.85
67 | S17L | 2.79
68 | S17Q | 1.98
69 | S17V | 2.08
70 | S17D | 3.33
71 | S17E | 4.22
72 | S17Y | 2.47

Row | Variant | protein stability index
73 | E11I | 2.19
74 | E11H | 1.89
75 | E11Y | 3.05
76 | E11T | 2.1
77 | E11P | 1.85
78 | E11R | 3.09
79 | E11K | 3
80 | S16K | 1.71
81 | S16D | 2.47
82 | S16T | 1.84
83 | S16A | 2.36
84 | S16I | 2.96
85 | S16H | 2.55
86 | S16M | 3.32
87 | S16E | 3.04
88 | Y4Q | 3.06
89 | Y4V | 3.51
90 | Y4K | 2.73
91 | H15D | 3.96
92 | H15P | 2.54
93 | H15L | 1.95
94 | H15A | 2.3
95 | H15V | 2.49
96 | H15I | 1.7
97 | H15W | 2.65

Row | Variant | protein stability index
98 | H15F | 2.94
99 | H15G | 2.55
100 | H15N | 3.62
101 | R21P | 3.43
102 | R21H | 3.35
103 | R21K | 3.51
104 | R21F | 3.04
105 | R21M | 3.58
106 | R21I | 3.75
107 | K2M | 2.59
108 | K2T | 3.05
109 | K2Q | 2.89
110 | K2C | 3.25
111 | G10D | 2.98
112 | G10T | 1.92
113 | G10V | 1.78
114 | G10W | 2.14
115 | G10Y | 1.69
116 | G10S | 2.12
117 | G10A | 1.88
118 | G10Q | 1.84
119 | L20I | 2.04
120 | L20P | 1.84
121 | L20F | 1.78
122 | L20V | 1.87

Row | Variant | protein stability index
123 | L20M | 2.6
124 | L20Y | 2.44
125 | E8S | 2.28
126 | E8F | 2
127 | E8I | 2.04
128 | E8R | 2.85
129 | E8L | 2.37
130 | E8D | 3.18
131 | E8V | 2.27
132 | A14V | 3.17
133 | A14P | 2.7
134 | A14G | 3.09
135 | A14F | 2.57
136 | A14K | 2.82
137 | A14D | 3.67
138 | A14L | 2.75
139 | P3L | 2.57
140 | P3H | 1.88
141 | P3C | 2.1
142 | P3F | 2.69
143 | P3V | 2.13
144 | R24P | 3.44
145 | R24Y | 2.68
146 | R24V | 3.54
147 | R24L | 4.29

Row | Variant | protein stability index
148 | C6Q | 3.6
149 | C6V | 3.35
150 | C6R | 3.08
151 | C6E | 3.76
152 | C6P | 3.76
153 | C6I | 3.23
154 | L19F | 2.68
155 | L19I | 1.8
156 | L19K | 2.73
157 | L19D | 2.78
158 | P7E | 2.85
159 | P7M | 2.49
160 | P7S | 2.8
161 | P7C | 1.67
162 | P7G | 2.14
163 | Q23L | 2.86
164 | Q23D | 1.82
165 | Q23N | 2.88
166 | Q23I | 3.16
167 | Q23T | 2.25

— the supplement of paper PMC10567573
